Data as given in patent publication US20120121633A1, “HIV CD4 BINDING SITE BASED COVALENT IMMUNOGEN COMPOSITIONS” (priority 2010, published 2012).

Assays:
[1] = molecular target: gp120 on intact HIV virions (strain MN) (HIV strain MN) (UniProt P05877); assay: MAb (7.5 µg/ml) with intact HIV virions, complexes captured on Protein G, p24 ELISA
[2] = molecular target: gp120 on intact HIV virions (strain MN) (HIV strain MN) (UniProt P05877); assay: MAb (0.8 µg/ml) with intact HIV virions, complexes captured on Protein G, p24 ELISA
[3] = molecular target: gp120 on intact HIV virions (strain MN) (HIV strain MN) (UniProt P05877); assay: MAb (45 µg/ml) with intact HIV virions, complexes captured on Protein G, p24 ELISA

MAb 2G12 (antibody)
A490 (MAb binding of HIV in the absence of competitors) [1]: 0.246 A490

MAb 447-52D (antibody)
A490 (MAb binding of HIV in the absence of competitors) [2]: 0.291 A490

MAb clone b12 (antibody)
A490 (MAb binding of HIV in the absence of competitors) [3]: 0.176 A490
